Assay results as given in the supplement of paper PMC6757056.
± gives the standard deviation of the averaged measurements.

B1: library; a variant is named by its letters at N, in order (parent)
chain: GCUGUCACCGGUGUAUUACCCUAGUGGUCGACCGGUCUGAUGAGUCUNNNNNNAGACGAAACAGC

Tests used:
hypoxanthine [1] = variants of: B1; test: normalized RNA/DNA level with ligand (relative to sTRSVctl = 100) (log10 (% of sTRSVctl)); ligand: hypoxanthine (xanthine aptamer); higher = less ribozyme self-cleavage, higher mRNA level; details: ligand concentration (+) RNA-Seq: 5 mM, HEK293T, reporter: mCherry (pCS4076), ligand present: yes
How it was run: (§1)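 Library plasmids carrying ribozyme switches linked to mCherry, or to eGFP in some ligand experiments, were transfected into HEK293T at 4 µg per 6-well well, with any ligand added 1 h earlier. Seventy-two hours on, total RNA was extracted with EDTA and reverse-transcribed, amplified, barcoded and sequenced. RNA level was RNA over DNA reads normalized to a spiked-in non-cleaving sequence or to the top sequences, then scaled and log-transformed. The top set was 25 sequences, the transform was ×100 and log10, and sequences needed ≥100 DNA reads.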

hypoxanthine [2] = variants of: B1; test: normalized RNA/DNA level without ligand (relative to sTRSVctl = 100) (log10 (% of sTRSVctl)); ligand: hypoxanthine (xanthine aptamer); higher = less ribozyme self-cleavage, higher mRNA level; details: HEK293T, reporter: mCherry (pCS4076), ligand present: no
How it was run: as §1

Row | Variant | normalized RNA/DNA level with ligand (log10) (hypoxanthine [1]) | normalized RNA/DNA level without ligand (log10) (hypoxanthine [2])
1 | GCUGUCACCGGUGUAUUACCCUAGUGGUCGACCGGUCUGAUGAGUCUGGGGGAAGACGAAACAGC | 1.8897 ± 0.00058 | 1.77 ± 0.1
2 | GCUGUCACCGGUGUAUUACCCUAGUGGUCGACCGGUCUGAUGAGUCUGGGGGGAGACGAAACAGC | 1.94 ± 0.03 | 1.65 ± 0.049
3 | GCUGUCACCGGUGUAUUACCCUAGUGGUCGACCGGUCUGAUGAGUCUGGGCGUAGACGAAACAGC | 2 ± 0.0057 | 1.96 ± 0.049
4 | GCUGUCACCGGUGUAUUACCCUAGUGGUCGACCGGUCUGAUGAGUCUGGGGCAAGACGAAACAGC | 1.941 ± 0.011 | 1.911 ± 0.01
5 | GCUGUCACCGGUGUAUUACCCUAGUGGUCGACCGGUCUGAUGAGUCUGGGGCGAGACGAAACAGC | 1.93 ± 0.057 | 1.748 ± 0.0076
6 | GCUGUCACCGGUGUAUUACCCUAGUGGUCGACCGGUCUGAUGAGUCUGGGCUUAGACGAAACAGC | 1.98 ± 0.069 | 1.96 ± 0.029
7 | GCUGUCACCGGUGUAUUACCCUAGUGGUCGACCGGUCUGAUGAGUCUGGGCUCAGACGAAACAGC | 1.9567 ± 0.00028 | 2 ± 0.093
8 | GCUGUCACCGGUGUAUUACCCUAGUGGUCGACCGGUCUGAUGAGUCUCGGGGAAGACGAAACAGC | 1.97 ± 0.097 | 1.76 ± 0.035
9 | GCUGUCACCGGUGUAUUACCCUAGUGGUCGACCGGUCUGAUGAGUCUCGGGGUAGACGAAACAGC | 1.99 ± 0.0036 | 1.908 ± 0.0053
10 | GCUGUCACCGGUGUAUUACCCUAGUGGUCGACCGGUCUGAUGAGUCUCGGGGGAGACGAAACAGC | 1.86 ± 0.032 | 1.25 ± 0.059
11 | GCUGUCACCGGUGUAUUACCCUAGUGGUCGACCGGUCUGAUGAGUCUUGGCGUAGACGAAACAGC | 1.961 ± 0.015 | 1.68 ± 0.064
12 | GCUGUCACCGGUGUAUUACCCUAGUGGUCGACCGGUCUGAUGAGUCUAGGGCCAGACGAAACAGC | 1.98 ± 0.024 | 1.98 ± 0.04
13 | GCUGUCACCGGUGUAUUACCCUAGUGGUCGACCGGUCUGAUGAGUCUAGGGCUAGACGAAACAGC | 1.99 ± 0.027 | 1.874 ± 0.018
14 | GCUGUCACCGGUGUAUUACCCUAGUGGUCGACCGGUCUGAUGAGUCUCGGGCCAGACGAAACAGC | 1.944 ± 0.0098 | 1.99 ± 0.026
15 | GCUGUCACCGGUGUAUUACCCUAGUGGUCGACCGGUCUGAUGAGUCUCGGGCAAGACGAAACAGC | 1.98 ± 0.049 | 1.8985 ± 0.0018
16 | GCUGUCACCGGUGUAUUACCCUAGUGGUCGACCGGUCUGAUGAGUCUCGGGCGAGACGAAACAGC | 1.973 ± 0.012 | 1.76 ± 0.024
17 | GCUGUCACCGGUGUAUUACCCUAGUGGUCGACCGGUCUGAUGAGUCUUGGGGCAGACGAAACAGC | 1.99 ± 0.025 | 1.94 ± 0.0063
18 | GCUGUCACCGGUGUAUUACCCUAGUGGUCGACCGGUCUGAUGAGUCUUGGGGGAGACGAAACAGC | 1.883 ± 0.0071 | 1.57 ± 0.054
19 | GCUGUCACCGGUGUAUUACCCUAGUGGUCGACCGGUCUGAUGAGUCUCGGCUGAGACGAAACAGC | 1.97 ± 0.037 | 1.889 ± 0.0029
20 | GCUGUCACCGGUGUAUUACCCUAGUGGUCGACCGGUCUGAUGAGUCUCGGCUAAGACGAAACAGC | 1.935 ± 0.017 | 1.67 ± 0.031
21 | GCUGUCACCGGUGUAUUACCCUAGUGGUCGACCGGUCUGAUGAGUCUCGGCUCAGACGAAACAGC | 2.04 ± 0.061 | 2.037 ± 0.017

Row | Variant | normalized RNA/DNA level with ligand (log10) (hypoxanthine [1]) | normalized RNA/DNA level without ligand (log10) (hypoxanthine [2])
22 | GCUGUCACCGGUGUAUUACCCUAGUGGUCGACCGGUCUGAUGAGUCUCGGCUUAGACGAAACAGC | 2.05 ± 0.038 | 1.93 ± 0.02
23 | GCUGUCACCGGUGUAUUACCCUAGUGGUCGACCGGUCUGAUGAGUCUUGGGCUAGACGAAACAGC | 2.05 ± 0.031 | 1.974 ± 0.019
24 | GCUGUCACCGGUGUAUUACCCUAGUGGUCGACCGGUCUGAUGAGUCUUGGGCCAGACGAAACAGC | 1.96 ± 0.04 | 2.019 ± 0.012
25 | GCUGUCACCGGUGUAUUACCCUAGUGGUCGACCGGUCUGAUGAGUCUUGGGCAAGACGAAACAGC | 1.938 ± 0.014 | 1.84 ± 0.056
26 | GCUGUCACCGGUGUAUUACCCUAGUGGUCGACCGGUCUGAUGAGUCUUGGGCGAGACGAAACAGC | 1.96 ± 0.043 | 1.8 ± 0.042
27 | GCUGUCACCGGUGUAUUACCCUAGUGGUCGACCGGUCUGAUGAGUCUCGGGAGAGACGAAACAGC | 1.87 ± 0.04 | 1.63 ± 0.021
28 | GCUGUCACCGGUGUAUUACCCUAGUGGUCGACCGGUCUGAUGAGUCUCGGGACAGACGAAACAGC | 1.96 ± 0.078 | 1.726 ± 0.0062
29 | GCUGUCACCGGUGUAUUACCCUAGUGGUCGACCGGUCUGAUGAGUCUCGGGAUAGACGAAACAGC | 1.94 ± 0.064 | 1.608 ± 0.016
30 | GCUGUCACCGGUGUAUUACCCUAGUGGUCGACCGGUCUGAUGAGUCUCGGGAAAGACGAAACAGC | 1.85 ± 0.029 | 1.53 ± 0.046
31 | GCUGUCACCGGUGUAUUACCCUAGUGGUCGACCGGUCUGAUGAGUCUUGGGAGAGACGAAACAGC | 1.9 ± 0.054 | 1.55 ± 0.044
32 | GCUGUCACCGGUGUAUUACCCUAGUGGUCGACCGGUCUGAUGAGUCUUGGGACAGACGAAACAGC | 1.897 ± 0.018 | 1.83 ± 0.044
33 | GCUGUCACCGGUGUAUUACCCUAGUGGUCGACCGGUCUGAUGAGUCUUGGGAAAGACGAAACAGC | 1.86 ± 0.054 | 1.64 ± 0.036
34 | GCUGUCACCGGUGUAUUACCCUAGUGGUCGACCGGUCUGAUGAGUCUUGGGAUAGACGAAACAGC | 1.938 ± 0.014 | 1.71 ± 0.02
35 | GCUGUCACCGGUGUAUUACCCUAGUGGUCGACCGGUCUGAUGAGUCUAGGGGAAGACGAAACAGC | 1.908 ± 0.015 | 1.61 ± 0.053
36 | GCUGUCACCGGUGUAUUACCCUAGUGGUCGACCGGUCUGAUGAGUCUAGGGAUAGACGAAACAGC | 1.89 ± 0.051 | 1.713 ± 0.0045
37 | GCUGUCACCGGUGUAUUACCCUAGUGGUCGACCGGUCUGAUGAGUCUUGGCUCAGACGAAACAGC | 2.02 ± 0.051 | 2 ± 0.021
38 | GCUGUCACCGGUGUAUUACCCUAGUGGUCGACCGGUCUGAUGAGUCUUGGCUAAGACGAAACAGC | 2.009 ± 0.006 | 1.942 ± 0.011
39 | GCUGUCACCGGUGUAUUACCCUAGUGGUCGACCGGUCUGAUGAGUCUAGGCUCAGACGAAACAGC | 2.02 ± 0.024 | 2.01 ± 0.055
40 | GCUGUCACCGGUGUAUUACCCUAGUGGUCGACCGGUCUGAUGAGUCUAGGCUUAGACGAAACAGC | 1.968 ± 0.014 | 1.89 ± 0.043
41 | GCUGUCACCGGUGUAUUACCCUAGUGGUCGACCGGUCUGAUGAGUCUGGGGAUAGACGAAACAGC | 1.895 ± 0.015 | 1.749 ± 0.0068
42 | GCUGUCACCGGUGUAUUACCCUAGUGGUCGACCGGUCUGAUGAGUCUGGGGACAGACGAAACAGC | 1.91 ± 0.068 | 1.613 ± 0.0032
